The target of one test is T1, wild-type AIMP2 protein (human, UniProt Q13155 1-320).
T1 construct: Endogenous protein of H460 cell lysate; also called wild-type (WT) AIMP2
T1 sequence (looked up): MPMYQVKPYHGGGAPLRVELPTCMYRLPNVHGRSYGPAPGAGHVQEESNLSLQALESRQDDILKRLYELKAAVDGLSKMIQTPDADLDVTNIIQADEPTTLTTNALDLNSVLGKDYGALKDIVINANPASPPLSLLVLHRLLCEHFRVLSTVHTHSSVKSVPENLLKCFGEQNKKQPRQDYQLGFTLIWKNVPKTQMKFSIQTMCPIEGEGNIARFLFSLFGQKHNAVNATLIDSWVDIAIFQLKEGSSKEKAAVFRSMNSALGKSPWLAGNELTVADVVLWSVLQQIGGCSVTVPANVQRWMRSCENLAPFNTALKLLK
Put plainly: Western blot of H460 cell lysate.

Test [1] has as its target T2, BSA-conjugated AIMP2-DX2 antigen peptide (human, not fully specified (residue 12); also: C-terminal Cys conjugated to BSA carrier).
T2 construct: The BSA carrier is not written as a chain; also called AIMP2-DX2 antigen peptide (the same peptide used in the rabbit immunization, conjugated to BSA)
T2 peptide: GHVQDYGALKDC
Put plainly: ELISA, plate coated with BSA-conjugated antigen peptide, periplasmic extract. (An ELISA detects its analyte on a solid surface through an enzyme-linked reagent.)

Test [2] deals with T3, AIMP2-DX2 antigen peptide (human, not fully specified).
T3 construct: Used in solution for pre-adsorption in Western blots (100 ug/ml) and as analyte in SPR
T3 peptide: GHVQDYGALKD
Put plainly: antigen pre-adsorption, Western blot of HEK293T lysate, peptide at 100 ug/ml. (Immunoblotting shows a protein as a band on a membrane.)

Test [3] deals with T3, AIMP2-DX2 antigen peptide. Description: SPR, H5 IgG coated on CM5 chip, peptide flowed at various concentrations. (In general: Surface plasmon resonance follows binding to a sensor surface in real time, without labels.)

Ends that are not written are not given here.

B1: H5 Fab (Fab, V domains shown)
VH: QEQLVESGGGLVTPGGTLTLTCTASGFTISSYHMTWVRQAPGKGLEWIGVISNSGGTSYANWAKGRFTISKTSTTVDLKITSPTTEDTATYFCVRGVPGINSNLWGQGTLVTISS
VL: AQVLTQTPSSVSAAVGGTVTINCQSSQSVYSGNWLAWYQQKPGQPPKLLIYSTSTLASGVPSRFKGSGSGTQFTLTVSDLECDDAATYYCAGDYDGYKNAFGGGTKVVVKR
notes: Expressed from pComb3XTT in E. coli and used as periplasmic extract; Detected with anti-HA tag or anti-human Fab secondary antibody, so a tag may be present; also called antibody (Fab) of clone H5; rabbit/human chimeric Fab
With B1, the binding result is on record as “no binding” with wild-type AIMP2 protein, “binds” in test [1] and “binds” in test [2].

B2: H5 IgG antibody (antibody, V domains shown)
VH: QEQLVESGGGLVTPGGTLTLTCTASGFTISSYHMTWVRQAPGKGLEWIGVISNSGGTSYANWAKGRFTISKTSTTVDLKITSPTTEDTATYFCVRGVPGINSNLWGQGTLVTISS
VL: AQVLTQTPSSVSAAVGGTVTINCQSSQSVYSGNWLAWYQQKPGQPPKLLIYSTSTLASGVPSRFKGSGSGTQFTLTVSDLECDDAATYYCAGDYDGYKNAFGGGTKVVVKR
notes: also called H5 antibody (IgG); H5 antibody
Take B2: in test [3], the binding result is listed as “binds”.

(Values after patent EP3444273A1 (Medicinal Bioconvergence Research Center, dated 2019).)
